Results from publication PMC2662490.

Target: FXR1P Nt-KH2–His6 (human)
Test: SAXS

stoichiometry N: 2
Substance: FXR1P Nt-KH2–His6 (domain or fragment)
